Data: patent US20260373285 (published 2026)
Numbering of substitutions follows the chain as printed. Each block holds one binder with its values, some of them ahead of it.

Columns and labels:
human Trop-2 (His) = molecular target: T1, human Trop-2 (His) (human, UniProt P09758); assay: SPR
T1 chain: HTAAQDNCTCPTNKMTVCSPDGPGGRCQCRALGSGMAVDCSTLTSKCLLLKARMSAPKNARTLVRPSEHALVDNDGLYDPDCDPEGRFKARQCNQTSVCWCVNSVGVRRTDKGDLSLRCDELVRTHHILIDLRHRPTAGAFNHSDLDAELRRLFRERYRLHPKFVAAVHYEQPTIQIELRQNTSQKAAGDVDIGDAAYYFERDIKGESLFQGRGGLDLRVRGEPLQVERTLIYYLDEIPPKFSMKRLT

hPD-L1(ECD)-His = hPD-L1(ECD)-His (human, UniProt Q9NZQ7); assay: SPR supernatant
hPD-L1(ECD)-His, sequence (Q9NZQ7 19-238): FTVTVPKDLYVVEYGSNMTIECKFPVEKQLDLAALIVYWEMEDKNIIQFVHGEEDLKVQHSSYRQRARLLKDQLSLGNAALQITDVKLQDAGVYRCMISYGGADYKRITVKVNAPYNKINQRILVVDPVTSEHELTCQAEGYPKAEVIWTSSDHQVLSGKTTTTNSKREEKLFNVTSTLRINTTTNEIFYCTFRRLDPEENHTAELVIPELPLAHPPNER

B5: PD-L1-1.168.15-z2-uIgG1K (antibody, V domains shown)
VH: EVQLVQSGAEVKKPGATVKISCKVSGFNIEDTYIYWVQQAPGKGLEWMGWIDPANYNTKYDPRFQDRVTITADTSTDTAYMELSSLRSEDTAVYYCARGLRLLMDYWGQGTTVTVSS
VL: DIQLTQSPSFLSASVGDRVTITCKASQNVHTSLAWYQQKPGKAPKALIYLASNRHTGVPSRFSGSGSGTEFTLTISSLQPEDFATYYCLQHWNYPLTFGQGTKLEIKR
Kd (hPD-L1(ECD)-His): 1.4 nM

B7: PD-L1-1.168.15-z0-uIgG1K (antibody, V domains shown)
VH: B5 VH
VL: B5 VL with A46L
Kd (hPD-L1(ECD)-His): 1.29 nM

B8: PD-L1-1.168.15-z5-uIgG1K (antibody, V domains shown)
VH: B5 VH
VL: B5 VL with A43S
Kd (hPD-L1(ECD)-His): 1.24 nM

B10: PD-L1-1.168.15-z9-uIgG1K (antibody)
chain 1: not shown
chain 2: DIQLTQSPSFLSASVGDRVTITCKASQNVHTSLAWYQQKPGKSPKALIYLASNRHTGVPSRFSGSGSGTEFTLTISSLQPEDFATYFCLQHWNYPLTFGQGTKLEIKRTVAAPSVFIFPPSDEQLKSGTASVVCLLNNFYPREAKVQWKVDNALQSGNSQESVTEQDSKDSTYSLSSTLTLSKADYEKHKVYACEVTHQGLSSPVTKSFNRGEC
Kd (hPD-L1(ECD)-His): 0.915 nM

B11: PD-L1-1.168.15-z12-uIgG1K (antibody)
chain 1: not shown
chain 2: B10 chain 2 with L4M, F87Y
Kd (hPD-L1(ECD)-His): 1.13 nM

B12: PD-L1-1.168.15-z15-uIgG1K (antibody)
chain 1: not shown
chain 2: B10 chain 2 with L4M
Kd (hPD-L1(ECD)-His): 1.19 nM

B13: PD-L1-1.168.15-z10-uIgG1K (antibody)
chain 1: not shown
chain 2: B10 chain 2 with L4M, F87Y
Kd (hPD-L1(ECD)-His): 0.995 nM

Further lines, results first:

Kd (human Trop-2 (His)): 75.1 nM
B1: Trop-2-YC-82hz-4 (antibody, V domains shown)
VH: EVQVVESGGGLVQPGGSLRLSCAASGYIFSNSGMGWYRQAPGQGLELVAAISSGGTTHYADSVKGRFTISRDNSKNTLYLQMNSLRAEDTAVYYCNGDRYYSGTDVFGSWGQGTLVTVSS

Kd (human Trop-2 (His)): 23.8 nM
B2: Trop-2-YC-82hz-2 (antibody, V domains shown)
VH: B1 VH with A24T, Q43K, G44Q, L45R, L78V

Kd (human Trop-2 (His)): 38.1 nM
B3: Trop-2-YC-82hz-1 (antibody, V domains shown)
VH: B1 VH with A24T, Q43K, L78V

Kd (human Trop-2 (His)): 48.2 nM
B4: Trop-2-YC-82hz-3 (antibody, V domains shown)
VH: B1 VH with Q43K, D61Q, L78V, A87P

Kd (hPD-L1(ECD)-His): 1 nM
B6: PD-L1-1.168.15-z16-uIgG1K (antibody, V domains shown)
VH: B5 VH with M48I, A72V, D77N
VL: B5 VL with L4M, A43S, Y87F

Kd (hPD-L1(ECD)-His): 1.86 nM
B9: PD-L1-1.168.15-z18-uIgG1K (antibody, V domains shown)
VH: B5 VH with I20L, M48I, I70V, A72V, D77N
VL: B5 VL with L4M, A43S, Y87F
